In patent publication US20100143942A1, “METHOD OF DETECTION” (LEIDEN UNIVERSITY, priority 2006, published 2010):
Where two headings read alike, the source gives them in different places.

Experiments:
Ty = molecular target: T1, Ty (Streptomyces antibioticus, UniProt P07524); test: Dye emission switching ratio (Fred/Foxy) of N-terminally labelled Ty; conditions: dye attached to Ty; excitation at 280 nm; Trp line = native protein
T1 construct: The S.a; Ty is a monomeric protein with a molecular mass of ˜30 kDa
Excerpt: (§1) To illustrate the present invention two type-3 copper proteins have been selected: Hc from the arthropod Carcinus aestuarii (Mediterranean crab) and Ty from the soil bacterium Streptomyces antibioticus. The C.a. Hc consists of a mixture of hexamers and dodecamers, which are self-assembled from three different types of subunits. The S.a. Ty is a monomeric protein with a molecular mass of ˜30 kDa. The structure of Ty from S. castaneoglobisporus has recently been solved. S.a. Ty has 91% sequence similarity (82% indentity) with S.c. Ty and can be easily modelled on the S.c. structure. […] Dissociation can be achieved by incubating the Hc at high pH and in the absence of divalent metal ions. Both conditions were met in our experiments and we will assume, therefore, that the Hc used in this study was present in the form of monomers. The data on O2 binding (vide infra) confirms this assumption.
Both Hc and Ty were labelled at their N-terminus with each of the five dyes. […] The peak around 330 nm is a second-order artefact. In a solution containing dye and protein separately (not linked) this peak (280 nm) was missing. […]
In all cases, an increase in label emission was observed after deoxygenating the sample (FIG. 4A). […] The Cy3 fluorescence is specific for the labelled protein, while the Trp emission derives mainly (>95%) from unlabelled Hc. […]

[1] = literature [12], [13]; cited from earlier work
[2] = literature [15]; read-out: literature Kd (iodide); cited from earlier work
[3] = literature [14]; read-out: literature dissociation constant (O2); cited from earlier work
[4] = O2 binding curve of labelled Ty; [O2] calculated from Hc-Atto390 fluorescence in the same sample during deoxygenation; design: species or system Streptomyces antibioticus; conditions: label fluorescence vs [O2] determined from Hc-Atto390; read-out: Kd (O2 binding curve fitted to Hill equation)
Excerpt: as §1, with “Both conditions were met in our experiments and we will assume, therefore, that the Hc used in this study was present in the form of monomers. The data on O2 binding (vide infra) confirms this assumption.” left out
The fact that the described method works for labels showing widely different emission wavelengths opens the possibility to observe two or more constructs in the same sample using a single excitation wavelength. […] The circles refer to the oxygen concentration (right scale) as calculated from the fluorescence of the Hc-Atto390. The left scale refers to the Ty-Atto655 fluorescence. […]
The [O2] at each time-point in the trace was determined using the response of Hc-Atto390 fluorescence with Eq. 1 and the oxygen dissociation constant and the Hill coefficient determined in an independent O2 titration (FIG. 6A). The Ty-Atto655 fluorescence was then plotted as a function of the determined [O2] at each time-point (FIG. 6B). […]

[5] = Titration of a mixture of Hc-Alexa350 and Ty-Cy5 with iodide in air-saturated solution, emission upon excitation at 280 nm; type: binding; conditions: fitted to Eq. 1, read-out: apparent Kd (iodide)
Protocol: The specificity of the method is illustrated by the data presented in FIG. 7, which show a titration of a mixture of Hc-Alexa350 and Ty-Cy5 with iodide in an air-saturated solution. […] Hc. […] The small fluorescence decrease of the latter can be ascribed to the aspecific collisional quenching of the label and/or the Trp fluorescence by iodide. […] The difference between the experimental Kd and the literature value of 3.0±0.3 mM [15] may be related to its dependence on the [O2] in the sample, which may have varied between the two experiments.

T1 sequence (P07524 whole entry): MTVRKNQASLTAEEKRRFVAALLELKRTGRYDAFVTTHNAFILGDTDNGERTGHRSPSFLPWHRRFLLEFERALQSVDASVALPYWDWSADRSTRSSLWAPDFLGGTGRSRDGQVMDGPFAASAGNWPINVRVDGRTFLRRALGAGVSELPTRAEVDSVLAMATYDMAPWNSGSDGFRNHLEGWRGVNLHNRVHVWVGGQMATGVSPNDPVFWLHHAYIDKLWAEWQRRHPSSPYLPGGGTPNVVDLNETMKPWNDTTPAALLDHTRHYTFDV

**Q.** For `Cc1cc(=O)oc2cc3c(cc12)C(C)CC(C)(C)N3CCCC(=O)O` (stereo not shown) [Atto390], which “SR Tyr (switching ratio Fred/Foxy)” value (Ty) is on record?
**A.** 2.2

**Q.** For `CCN1C(=CC=CC2=[N+](CCCCCC(=O)O)c3ccc(S(=O)(=O)O)cc3C2(C)C)C(C)(C)c2cc(S(=O)(=O)[O-])ccc21` [Cy3], which “SR Tyr (switching ratio Fred/Foxy)” value (Ty) is on record?
**A.** 2.8

B1: Ty: Ty from the soil bacterium Streptomyces antibioticus, monomeric type-3 copper protein of ~30 kDa (protein, UniProt P07524 2-273, looked up)
Tyrosinase: TVRKNQASLTAEEKRRFVAALLELKRTGRYDAFVTTHNAFILGDTDNGERTGHRSPSFLPWHRRFLLEFERALQSVDASVALPYWDWSADRSTRSSLWAPDFLGGTGRSRDGQVMDGPFAASAGNWPINVRVDGRTFLRRALGAGVSELPTRAEVDSVLAMATYDMAPWNSGSDGFRNHLEGWRGVNLHNRVHVWVGGQMATGVSPNDPVFWLHHAYIDKLWAEWQRRHPSSPYLPGGGTPNVVDLNETMKPWNDTTPAALLDHTRHYTFDV
**Q.** With B1 as the molecule, how does the O2 dissociation rate [1] read?
**A.** ~300 s⁻¹

**Q.** What about the Kd [2] of the same molecule?
**A.** 3000 ± 300 µM

**Q.** What about the Kd [3] of the same molecule?
**A.** 16 µM

B2: Ty-Cy5: Streptomyces antibioticus tyrosinase labelled at its N-terminus with the dye Cy5 (conjugate, UniProt P07524 2-273, looked up)
Tyrosinase: B1 Tyrosinase
modifications: N-terminal Cy5 label
**Q.** With B2 as the molecule, how does the Kd [4] read?
**A.** 15 µM

**Q.** What about the Kd [5] of the same molecule?
**A.** 4400 ± 300 µM
